# Laboratory results as given in patent publication US12077763B2, “RNA-based control of powdery mildew” (Greenlight Biosciences, Inc., priority 2021, dated 2024).
# B1: GS3472 (nucleic acid)
# sense: UUAUUUGUGGCGACCUACCGAAAAUAAUCGAAGAUUCGCAAUGAGUGAUGAGUUAGCACAGGACGAUGAAGGUUUUGAAAUAUCCGACUUUGGAGUUGAAGACGAUGAAAUAGAGUCUACUAUAGGCCAAAAAGAAGAUAGAGAUCAAAGGCCAGAAGAGACGAGGUACAAUCCUGCGCCGAAAAAUUCCGGACGAAAGACUGUAAAAAAUACAACACGUGAGAGCUUAGAAAGAGAAACGAUAUUUACUGUUGGUGAAGACGGGGACAAAUGGUCAAAUAAUGAUAGUGACGAGGAGCAUGUUAAUCUCGUUAGUGGGUCAAACAAGCCUUCUUAGAUUUACGACAAUUUUUUU
# antisense: AAAAAAAUUGUCGUAAAUCUAAGAAGGCUUGUUUGACCCACUAACGAGAUUAACAUGCUCCUCGUCACUAUCAUUAUUUGACCAUUUGUCCCCGUCUUCACCAACAGUAAAUAUCGUUUCUCUUUCUAAGCUCUCACGUGUUGUAUUUUUUACAGUCUUUCGUCCGGAAUUUUUCGGCGCAGGAUUGUACCUCGUCUCUUCUGGCCUUUGAUCUCUAUCUUCUUUUUGGCCUAUAGUAGACUCUAUUUCAUCGUCUUCAACUCCAAAGUCGGAUAUUUCAAAACCUUCAUCGUCCUGUGCUAACUCAUCACUCAUUGCGAAUCUUCGAUUAUUUUCGGUAGGUCGCCACAAAUAA
# B2: GS3474 (nucleic acid)
# sense: UAAGCAAUUUGAUGAUGAUCAUUAUGGUCUGGAGAAAGUCAAGAAAAGACUCCUUGAAUAUUUAGCGGUUCUCAAACUAAAGCAAUCAAUAAAUCAAGACAUUGACAUCAAGAUUAAGAAGGCAUCUGAAGAAAGAGCACAUGAAAAACUAGAAAUCUUAAAAAGUCAGAGAAUGGUUGAUAAAUCGCCUAUCUUGCUACUCGUUGGUCCUCCAGGUGUAGGUAAAACAAGCCUCGCAAAAUCUGUUGCAACAGCACUUGGUCGUAAAUUUCAUCGAAUUUCUCUUGGUGGUGUUCGGGAUGAGGCUGAAAUUAGGGGACAUCGUCGUACUUACGUUGCAGCUAUGCCAGGCCUCAUAAUUCAAGGGCUUAAGAAAGUUGGAGUGUGCAAUCCCGUUUUUCUUUUAGAUGAAAUUGAUAAAAUUGGGAGUUCUAAUUUCCAAGGUGAUCCUAGCGCUGCAAUGCUCGAAGUCCUCGAUCCAGAGCAGAAUCACAGUUUUACAGACCACUACGUCAAUAUUCCAGUAGACCUUAGCAAAGUUCUGUUUAUCGCUACUGCAAAUAGUCUGGAUACUAUUUCACCACCACUCUUAGACAGA
# antisense: AAUGACAUGGAUUAUGUUGAACAUCAUUUUGGUCCUGCAGGCUUAAAUCGACAGGACAUUGUCCAUACAUACAGAACUCUUAAUGCAAAGAUUAUUAAAGCUGACCUCCUUCGUUAUUUGAUUAUGUAUGUGGAAGGAGGUCUAUACGCUGACAUUGAUGUCGAAGCUUUACGUCCAAUUGAACGUUUUAUUCCAGAGCGAUGGAACGAGAAAGACAUUGAUAUGAUUGUAGGGGUCGAGAUUGAUAUGCCGCAUUAUUCCGAUCACCCUAUUCUUGGUCCUAAAUCUAAAUCAUUUUGCCAAUGGACAUUUAUGUGCAAGCCACGUCUACCGGUGAUGAUGCAAUUAAUUGAUAAUAUUAUCGUCUGGCUCAAUCAGCUUUCCCGA
# B3: GS3477 (nucleic acid)
# sense: CCUCUCGCCAUUAAAUACUCAUAAAAUAUCCGCACGUACAGUUCUCUUCACUUCGGUACCUGCUAAAUACAGAGAUGAAUCUAAAUUACGUCAGAUAUUUGGCUCAUGCGUGAAAAAGGUUUGGAUAACAAAAGACAGUUCAGAGGUUGACGACCUUGUAUCUGAGCGCGACGAUCUCCUACUAAGAUUAGAAUCAUCUGAAGUUAAGCUUAUUAAAAUUGCAAAUACAGAGAGACUCAAGAUUAACAAGAAAAAAGCUGGAGAUAAUAACUCAUCAUCUGAAGUCGCAGCUCCUGUCCCAGCAUCUCUAGUUGACUACUGGGUUCCAGAAAAUAAGCGUCCGACUCAUAAGCUUGGCUUAUUUGGGCUAGUUGGACAGAAAGUUGAUACGAUUAAAU
# antisense: AUUUAAUCGUAUCAACUUUCUGUCCAACUAGCCCAAAUAAGCCAAGCUUAUGAGUCGGACGCUUAUUUUCUGGAACCCAGUAGUCAACUAGAGAUGCUGGGACAGGAGCUGCGACUUCAGAUGAUGAGUUAUUAUCUCCAGCUUUUUUCUUGUUAAUCUUGAGUCUCUCUGUAUUUGCAAUUUUAAUAAGCUUAACUUCAGAUGAUUCUAAUCUUAGUAGGAGAUCGUCGCGCUCAGAUACAAGGUCGUCAACCUCUGAACUGUCUUUUGUUAUCCAAACCUUUUUCACGCAUGAGCCAAAUAUCUGACGUAAUUUAGAUUCAUCUCUGUAUUUAGCAGGUACCGAAGUGAAGAGAACUGUACGUGCGGAUAUUUUAUGAGUAUUUAAUGGCGAGAGG
# B4: GS3478 (nucleic acid)
# sense: ACCGUCCUGAAAGUAAAGGUGAAAAGAAAGAGCGUCUUCUCAAGGAAGCUACAGCUAUUAAAAAUGGCAACAAGGAGGAUGUCAGUAAGAAGCCAUACACAGUAAAGUAUGGACUCAAUCAUGUCGUUGGUUUGGUUGAGAAUAAGAAAGCUUCUCUAGUCUUAAUACCCAAUGAUGUCGAUCCUAUAGAGUUGGUUAUAUUUCUUCCAGCUCUUUGUCGAAAGAUGGGAGUUCCUUAUGCUAUCAUUAAAGGAAAAGCUAGACUUGGUACUGUUGUACACAAGAAAACUGCUGCUGUAUUGGCAAUAACUGAAGUUCGAUCCGAAGAUAAAUCAGAGCUAUCAAAAUUAAUCCAAGCUAUUAAAGAAGGCUACUCUGAGAAAUAUGAAGAAGCUAAG
# antisense: CUUAGCUUCUUCAUAUUUCUCAGAGUAGCCUUCUUUAAUAGCUUGGAUUAAUUUUGAUAGCUCUGAUUUAUCUUCGGAUCGAACUUCAGUUAUUGCCAAUACAGCAGCAGUUUUCUUGUGUACAACAGUACCAAGUCUAGCUUUUCCUUUAAUGAUAGCAUAAGGAACUCCCAUCUUUCGACAAAGAGCUGGAAGAAAUAUAACCAACUCUAUAGGAUCGACAUCAUUGGGUAUUAAGACUAGAGAAGCUUUCUUAUUCUCAACCAAACCAACGACAUGAUUGAGUCCAUACUUUACUGUGUAUGGCUUCUUACUGACAUCCUCCUUGUUGCCAUUUUUAAUAGCUGUAGCUUCCUUGAGAAGACGCUCUUUCUUUUCACCUUUACUUUCAGGACGGU
# B5: GS3523 (nucleic acid)
# sense: UAACGAGAGAGAAUACACGGUAAAGACAGUAGUAUGGCAUAUGAUGCAAAAUGUAGAAAAGAUUGUAAUUGAGUUGGCAGUAAGUUCAUUCACGAAAAAUGAAUUAUUUUCCACACCAUAUCCGGGCUGAGGAAGGAAGACAUUUGUUUUCAAGUCAAGUUAAUGAAAAAACCAAAAAUAAAACUCAAACACACAGUGAGUAAUUUUUAUUAAGGUGGUCCAAUAAUAAUUUUUUCUGACAUGUACUCCUUGUAGUUUUGAGAUGAAAAUAGAGAUAAUAUUGAGUCUGUCGUUAUCCGAAACAGUUUAUGUUAGAGGUUGAUAAAUGACGAUACAAAAUGUAUAUAUUAGGAAAUCAAUUUACCGUGACCAAUGAGAAAAGAGGAGGUCUAAUU
# antisense: AAUUAGACCUCCUCUUUUCUCAUUGGUCACGGUAAAUUGAUUUCCUAAUAUAUACAUUUUGUAUCGUCAUUUAUCAACCUCUAACAUAAACUGUUUCGGAUAACGACAGACUCAAUAUUAUCUCUAUUUUCAUCUCAAAACUACAAGGAGUACAUGUCAGAAAAAAUUAUUAUUGGACCACCUUAAUAAAAAUUACUCACUGUGUGUUUGAGUUUUAUUUUUGGUUUUUUCAUUAACUUGACUUGAAAACAAAUGUCUUCCUUCCUCAGCCCGGAUAUGGUGUGGAAAAUAAUUCAUUUUUCGUGAAUGAACUUACUGCCAACUCAAUUACAAUCUUUUCUACAUUUUGCAUCAUAUGCCAUACUACUGUCUUUACCGUGUAUUCUCUCUCGUUA
# B6: GS3524 (nucleic acid)
# sense: UCAAGUCCACUUCGAUUUGUAAAGCAAGAAGUUAUGAGACCUUGAGAAUGACUGAGGUAGGCCGAAUAAGAUUUUCAGAUUCUAAAAUACUGGAUUUUGGUACCAAUUCAUGAUCCUUUCUGGCCCCCUUACAUUGGCGACAAGGCAGAUAGUCAUCGAGUUGGUCUUUUCCAGUCAAAGAAUGAUAAUCUCCAACGUCUUUCCGGGAAACAGAAGUUGUAUUGACAUUAAUUACAGCUGUGGAUGAGGAUGAACGAUAAUAUUGGCGUUGAGCUACAGGGAAGGGAUUCAACAGAUGCCAUUGCCAUUCAUAAUUUCCAUGAAGCCAAGUCGUUGAAGCCAGAGAUGCAAGUGUAUGGAAGAAUCCCAAGAGCCAAUUGAUUGAAGACAGAAUUACU
# antisense: AGUAAUUCUGUCUUCAAUCAAUUGGCUCUUGGGAUUCUUCCAUACACUUGCAUCUCUGGCUUCAACGACUUGGCUUCAUGGAAAUUAUGAAUGGCAAUGGCAUCUGUUGAAUCCCUUCCCUGUAGCUCAACGCCAAUAUUAUCGUUCAUCCUCAUCCACAGCUGUAAUUAAUGUCAAUACAACUUCUGUUUCCCGGAAAGACGUUGGAGAUUAUCAUUCUUUGACUGGAAAAGACCAACUCGAUGACUAUCUGCCUUGUCGCCAAUGUAAGGGGGCCAGAAAGGAUCAUGAAUUGGUACCAAAAUCCAGUAUUUUAGAAUCUGAAAAUCUUAUUCGGCCUACCUCAGUCAUUCUCAAGGUCUCAUAACUUCUUGCUUUACAAAUCGAAGUGGACUUGA
# B7: GS3525 (nucleic acid)
# sense: CUGGAAUUGUUGCACUGGCCAUGUAAAGCAGUUUAUGACUCGUCUAAAUAUUUAAUUACGGCUAUGCACGGAGAGCUUGGGGUUACUGUUUUUUUUUCUCAAAAAUAUGCCGGUGGGAUUCGAAUUGGUCCGGAUAUUUUUUCUGUAAAUAAUUGAGUGACGGCUUUGUACUCGUGAUAAUUACAGACAAAUCUAAUAUAAUGUGCUUAUCCUUCUAACGAACUUCGGAGAAUGAUUUGUUUUAUUGAGUGAUUAGUUGACUUGUUUUAUUAGUUAUGGUUAUCAAACGAUCACAUAAAAAAACGCAUACUUUUUACAAUGAAGUGAUUGUAUACCAAUGUUUCCCUUGGUGGCCCUCAAAAAACUAAGUUAGAUAGAU
# antisense: AUCUAUCUAACUUAGUUUUUUGAGGGCCACCAAGGGAAACAUUGGUAUACAAUCACUUCAUUGUAAAAAGUAUGCGUUUUUUUAUGUGAUCGUUUGAUAACCAUAACUAAUAAAACAAGUCAACUAAUCACUCAAUAAAACAAAUCAUUCUCCGAAGUUCGUUAGAAGGAUAAGCACAUUAUAUUAGAUUUGUCUGUAAUUAUCACGAGUACAAAGCCGUCACUCAAUUAUUUACAGAAAAAAUAUCCGGACCAAUUCGAAUCCCACCGGCAUAUUUUUGAGAAAAAAAAACAGUAACCCCAAGCUCUCCGUGCAUAGCCGUAAUUAAAUAUUUAGACGAGUCAUAAACUGCUUUACAUGGCCAGUGCAACAAUUCCAG
# Tested on: E. necator
# Experiment: Leaf disc assay, dry inoculum (settling tower), decrease in disease severity / hyphal growth (Example 2)
# Conditions: decrease in disease severity (hyphal growth) relative to untreated control, value ± SE; for % decrease =/− SE TP1: time point 1 (untreated control hyphal growth ≥50%); for % decrease =/− SE TP2: time point 2
Molecule,% decrease =/− SE TP1,% decrease =/− SE TP2
B1,28 ± 5%,22 ± 6%
B2,17 ± 5%,9 ± 8%
B3,28 ± 4%,7 ± 8%
B4,29 ± 4%,13 ± 9%
B5,8 ± 11%,12 ± 10%
B6,3 ± 11%,22 ± 12%
B7,17 ± 9%,34 ± 8%
